Assay results taken from PMC13483431, “Structure and mechanism of the HSV-1 origin-binding protein UL9” (Journal of Virology, 2025).

Experiments:
UL9CTD wild type = UL9CTD wild type (HSV-1, UniProt P10193 536-851); test: MST; MST: 50 mM Tris pH 8.0, 150 mM NaCl, 1 mM DTT, 0.05% Tween-20, 40 nM FAM-dsDNA, 25 C; EMSA: 50 mM Tris pH 8.0, 50 mM NaCl, 1 mM DTT, 40 nM FAM-dsDNA, 0.5-3.5 uM protein, 4 C; cryo-EM complex: 20 mM HEPES pH 7.0, 150 mM NaCl, 1 mM DTT; conditions: protein: recombinant; tags: N-terminal 8xHis; blunt
[1] = target: T1, full-length HSV-1 ICP8 with an N-terminal 8xHis tag (HSV-1, UniProt P04296 1-1196); test: pull-down; Strep-tag pull-down: 50 μg Strep-tagged UL9^CTD or full-length UL9 as bait with an equal amount of ICP8; 50 mM Tris pH 8.0, 150 mM NaCl, 1 mM DTT, 0.05% Tween-20; 1 h at 4 °C; SDS-PAGE with Coomassie; conditions: both partners purified
T1 construct: also called His-tagged ICP8; source: insect cells (baculovirus, as UL9^FL), purified (Ni-NTA); not shown: 8xHis, N-terminal, kept
T1 sequence: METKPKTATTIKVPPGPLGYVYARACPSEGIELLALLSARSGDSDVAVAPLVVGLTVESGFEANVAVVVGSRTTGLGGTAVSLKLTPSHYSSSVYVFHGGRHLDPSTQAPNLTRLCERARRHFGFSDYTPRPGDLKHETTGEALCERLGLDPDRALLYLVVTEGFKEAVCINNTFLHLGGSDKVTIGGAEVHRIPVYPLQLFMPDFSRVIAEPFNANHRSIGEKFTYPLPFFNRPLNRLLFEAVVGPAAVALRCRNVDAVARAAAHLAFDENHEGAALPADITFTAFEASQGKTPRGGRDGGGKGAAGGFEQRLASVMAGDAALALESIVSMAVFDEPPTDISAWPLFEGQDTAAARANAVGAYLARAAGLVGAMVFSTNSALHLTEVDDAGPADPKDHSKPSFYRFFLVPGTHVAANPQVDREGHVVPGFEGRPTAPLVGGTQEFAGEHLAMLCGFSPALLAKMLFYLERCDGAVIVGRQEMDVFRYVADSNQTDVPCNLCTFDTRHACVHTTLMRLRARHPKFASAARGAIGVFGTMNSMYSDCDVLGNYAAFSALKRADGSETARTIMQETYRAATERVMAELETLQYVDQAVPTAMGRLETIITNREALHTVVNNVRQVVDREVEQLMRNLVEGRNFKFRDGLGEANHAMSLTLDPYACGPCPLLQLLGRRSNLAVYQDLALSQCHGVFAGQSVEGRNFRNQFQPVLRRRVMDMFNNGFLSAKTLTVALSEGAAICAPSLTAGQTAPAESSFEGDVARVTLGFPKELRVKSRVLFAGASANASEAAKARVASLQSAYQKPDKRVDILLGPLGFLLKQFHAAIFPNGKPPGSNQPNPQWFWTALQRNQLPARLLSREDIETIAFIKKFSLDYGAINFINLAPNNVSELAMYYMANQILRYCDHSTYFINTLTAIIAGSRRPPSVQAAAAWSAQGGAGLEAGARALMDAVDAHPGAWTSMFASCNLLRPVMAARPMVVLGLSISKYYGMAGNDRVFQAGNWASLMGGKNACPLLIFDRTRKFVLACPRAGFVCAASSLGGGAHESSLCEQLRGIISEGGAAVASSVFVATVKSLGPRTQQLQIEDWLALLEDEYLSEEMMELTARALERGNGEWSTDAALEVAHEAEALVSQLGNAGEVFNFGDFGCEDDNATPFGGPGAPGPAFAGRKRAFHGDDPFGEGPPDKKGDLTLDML

[2] = target: T1, full-length HSV-1 ICP8 with an …; test: pull-down; GST pull-down: 50 μg GST-tagged UL9^CTD variants or C-tail peptides on GST beads with an equal amount of ICP8; 50 mM Tris pH 8.0, 150 mM NaCl, 1 mM DTT, 0.05% Tween-20; 1 h at 4 °C; SDS-PAGE with Coomassie; conditions: both partners purified

B1: 15-bp oriS Box I dsDNA (dsDNA)
DNA 1: GCGTTCGCACTTCGT
DNA 2: ACGAAGTGCGAACGC
For B1, the Kd (UL9CTD wild type) was 2230 ± 420 nM.

B2: Strep-tagged UL9 C-terminal domain (residues 536-851) (domain or fragment)
chain: PEASLPAQAAETEEVGLFVEKYLRSDVAPAEIVALMRNLNSLMGRTRFIYLALLEACLRVPMATRSSAIFRRIYDHYATGVIPTINVTGELELVALPPTLNVTPVWELLCLCSTMAARLHWDSAAGGSGRTFGPDDVLDLLTPHYDRYMQLVFELGHCNVTDGLLLSEEAVKRVADALSGCPPRGSVSETDHAVALFKIIWGELFGVQMAKSTQTFPGAGRVKNLTKQTIVGLLDAHHIDHSACRTHRQLYALLMAHKREFAGARFKLRVPAWGRCLRTHSSSANPNADIILEAALSELPTEAWPMMQGAVNFSTL
notes: HSV-1 UL9 C-terminal domain, residues 536-851; As the His-tagged construct, with the N-terminal 8xHis tag replaced by a Strep-tag; also called UL9^CTD; Strep-tagged UL9^CTD; source: E. coli BL21 (DE3), purified (Strep-Tactin XT, Superdex 75); not shown: Strep-tag, N-terminal, kept
B2: binds [1].

B3: GST-tagged UL9 C-terminal domain (residues 536-851) (domain or fragment)
chain: PEASLPAQAAETEEVGLFVEKYLRSDVAPAEIVALMRNLNSLMGRTRFIYLALLEACLRVPMATRSSAIFRRIYDHYATGVIPTINVTGELELVALPPTLNVTPVWELLCLCSTMAARLHWDSAAGGSGRTFGPDDVLDLLTPHYDRYMQLVFELGHCNVTDGLLLSEEAVKRVADALSGCPPRGSVSETDHAVALFKIIWGELFGVQMAKSTQTFPGAGRVKNLTKQTIVGLLDAHHIDHSACRTHRQLYALLMAHKREFAGARFKLRVPAWGRCLRTHSSSANPNADIILEAALSELPTEAWPMMQGAVNFSTL
notes: HSV-1 UL9 C-terminal domain, residues 536-851; Cloned into pGEX-6P-1; also called UL9^CTD; source: E. coli BL21 (DE3), purified (Glutathione-Sepharose 4B); not shown: GST, N-terminal, kept
B3: binds [2].
